Data reported in US20230213525A1, “DETECTING MICROBIAL INFECTION IN WOUNDS” (QUALIZYME DIAGNOSTICS GMBH & CO KG, priority 2016, published 2023).

Target: T1, Elastase (Homo sapiens, UniProt P08246)
T1 sequence (P08246 30-267): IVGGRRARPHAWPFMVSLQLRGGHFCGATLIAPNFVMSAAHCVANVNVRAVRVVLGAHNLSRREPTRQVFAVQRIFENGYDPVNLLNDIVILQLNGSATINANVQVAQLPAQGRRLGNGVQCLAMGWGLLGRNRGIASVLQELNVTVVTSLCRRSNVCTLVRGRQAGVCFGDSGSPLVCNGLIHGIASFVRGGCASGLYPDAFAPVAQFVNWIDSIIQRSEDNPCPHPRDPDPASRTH
Assay: Reaction of Trx-Ela-Sub 1-RBB with Elastase
Type: biochemical
Details: incubated with and without Elastase containing buffer; FIG. 10
Protocol: The stained and purified peptide construct was applied on a cellulose surface and dried at 37° C. for 2 h. Unbound Trx-Ela-Sub 1-RBB was removed with H20. The stripes with the applied Elastase substrate were incubated with and without Elastase containing buffer, respectively.

B1: Trx-Ela-Sub 1-RBB: purified Trx-Ela-Sub1 fusion protein stained with vinyl sulfone dye remazol brilliant blue R (conjugate)
chain: MSDKIIHLTDDSFDTDVLKADGAILVDFWAEWCGPCKMIAPILDEIADEYQGKLTVAKLNIDQNPGTAPKYGIRGIPTLLLFKNGEVAATKVGALSKGQLKEFLDALAGSGSGHMHHHHHHSSGLVPRGSGMKETAAAKFERQHMDSPDLGTDDDDKAMGGSCGGGGSAAPVGGGGSAAPVGGGGSPPGGNRGTTTTRRPATTTGSSPGPTQSHYGQCGGIGYSGPTVCASGTTCQVLNPYYSQCLLEHHHHHH
Q: How did the “dye release from cellulose stripes” value turn out when B1 was run?
A: Elastase responsive dye release
